# Laboratory results reported in US8034572B2, “Receptor for GDNF family ligands” (priority 2006, dated 2011).
# B1: GDNF: Glial cell line-derived neurotrophic factor, secreted growth factor, GDNF family ligand (protein)
# chain: SPDKQMAVLPRRERNRQAAAANPENSRGKGRRGQRGKNRGCVLTAIHLNVTDLGLGYETKEELIFRYCSGSCDAAETTYDKILKNLSRNRRLVSDKVGQACCRPIAFDDDLSFLDDNLVYHILRKHSAKRCGCI
# Assays:
# [1] = Binding of ^125I-labeled GFLs to heparin-sepharose column, step NaCl elution
# Protocol: GFL iodination was performed as described (Lindahl et al., 2001). Heparin-sepharose column (Amersham Biosciences) chromatography was performed to assess GFL binding to heparin. GDNF, ARTN, NRTN and PSPN were purchased from PeproTech, Ltd. or R&D Systems, Inc. GFLs were enzymatically labeled with carrier-free [^125I]NaI (Amersham Biosciences) by the lactoperoxidase method to a specific activity of 100000-200000 cpm/ng as described elsewhere (Lindahl et al., 2001). 15000-20000 cpm of iodinated GFLs, together with 10 μg of the same unlabeled protein as a carrier, were injected into a 1 ml heparin-sepharose column (Amersham Biosciences) in phosphate buffer pH 7.2 containing 100 mM NaCl and 10 mg/ml of BSA. After washing with 5 volumes of the same buffer, iodinated GFLs were eluted from the column by step elution (2 ml) with increasing NaCl concentration. The resulting fractions were counted on Rackbeta 1214 (LKB/Wallac) scintillation counter.
# [2] = SPR (IAsys): GFLs interaction with heparin-BSA cuvette; assay type: binding
# Protocol: (§1) The affinities of GFLs for heparin and heparin-like molecules (e.g. syndecan-3) were determined by plasmon surface resonance using the IAsys system (Affinity Sensors, Cambridge, UK). Planar aminosilane cuvettes (Affinity Sensors) were used for protein coupling to avoid problems with mass transport, which occur frequently with matrix surfaces. In the initial approach, heparin-BSA was immobilized to the cuvette surface using the manufacturer's instructions and different ligand concentrations were used to determine association (ka) and dissociation (kdis) rates using the IAsys Fastfit software. The dissociation constant Kd was determined from the binding dynamics as […], or from equilibrium response (R) using a simple Langmuir fit: R=(Rmax*C)/(Kd+C), where C is the ligand concentration. […] The dissociation constants were determined from binding dynamics and equilibrium response. The same cuvettes were used to test binding of heparan sulfate proteoglycan syndecan-3, which was purified as an ectodomain from early postnatal rat brains by HB-GAM affinity chromatography (Raulo et al., 1994).
# (§2) Binding was analyzed using IAsys cuvettes with immobilized heparin-BSA or GFLs. The dissociation constant Kd was determined from dynamics of association and dissociation (Kd=kdis/ka), or from equilibrium response R (R=(Rmax*C)/(Kd+C), where C is ligand concentration).
# [3] = SPR (IAsys): heparin interaction with GFLs cuvette; assay type: binding; settings: GFLs cuvette
# Protocol: as §1, §2
# syndecan-3 ectodomain = target: T1, syndecan-3 ectodomain (Rattus norvegicus, UniProt P33671); test: SPR (IAsys): syndecan-3 ectodomain interaction with GFLs cuvette; assay type: binding; settings: syndecan-3 ectodomain in solution
# T1 construct: purified as an ectodomain from early postnatal rat brains; from tissue; host or cells: early postnatal rat brain
# T1 sequence (P33671 45-387 limits assumed): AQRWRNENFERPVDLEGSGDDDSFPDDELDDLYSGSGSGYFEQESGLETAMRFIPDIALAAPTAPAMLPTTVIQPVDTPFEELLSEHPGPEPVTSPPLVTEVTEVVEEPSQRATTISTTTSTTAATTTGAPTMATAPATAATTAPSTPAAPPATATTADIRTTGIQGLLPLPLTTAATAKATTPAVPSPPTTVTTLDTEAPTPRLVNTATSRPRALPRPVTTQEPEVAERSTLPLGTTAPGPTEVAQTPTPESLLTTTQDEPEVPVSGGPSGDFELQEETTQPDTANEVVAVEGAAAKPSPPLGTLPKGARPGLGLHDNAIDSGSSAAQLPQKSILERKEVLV
# Protocol: as §1, §2
# Src family kinase = test: Src kinase phosphorylation assay in SHEP cells; assay type: cell-based, human; settings: SHEP cells plated on immobilized protein
# Protocol: SHEP cells from 10-cm plates were harvested as described above and plated on GDNF-coated 35-mm Petri dishes. Cells were allowed to sediment for 10 min at room temperature and then transferred to 37° C. for additional 15 min. Cells were lysed in the lysis buffer (TBS, 1% Triton X-100, 0.5% deoxycholic acid, 0.1% SDS, 10% glycerol, 1 mM Na3VO4, 1 mM PMSF and Complete protease inhibitor mixture). Lysates were analyzed on 10% SDS-PAGE and western blots were stained with anti-pY^418Src or anti-pp60Src antibodies (Biosource). Some cells were pretreated with heparinase III or PI-PLC.
# [4] = test system: rat embryonic hippocampal neurons; test: Neurite outgrowth assay in E17 rat hippocampal neurons; assay type: cell-based
# Protocol: Hippocampi were dissected from E17 embryonic rat brains under the microscope and transferred to the preparation media (HBBS without Ca^2+ and Mg^2+ supplemented with 1 mM sodium pyruvate (Gibco) and buffered by 10 mM Hepes pH 7.2), then partially digested by papain and triturated in the preparation media supplemented with DNase I. Cells were washed with HBBS containing Ca^2+ and Mg^2+ and transferred to the growth media (Neurobasal media with B27 supplement, 2 mM L-glutamine, 25 μM glutamic acid and penicillin and streptomycin (Gibco)). For enzymatic treatments neurons were kept in the growth media supplemented with 0.2% BSA at +37° C. for one hour. After the treatment cells in the same media were seeded on the protein-coated cover slips (see above) and after 10 min, the media was changed for B27-free media. Neurons were incubated at +37° C., 5% CO2 for 18 hours.
# For immunocytochemistry neurons were washed with PBS and fixed with 4% PFA, permeabilized with 0.1% Triton X-100 and stained with rabbit polyclonal antiserum to Protein Gene Product 9.5 (Affiniti), neuron-specific Class III tubulin-βIII clone Tuj1 antibodies (BABCO) or with antibodies against the neurofilament triplet, 13AA8 (Arumäe et al., 1993). Secondary antibodies were goat anti-rabbit or anti-mouse Alexa488-conjugated (Molecular Probes).
# The immunostained cultures were viewed using the ×20 objective of a Zeiss Axioplan 2 fluorescent microscope (Zeiss). Neurons with at least two times longer than cell body diameter processes were considered process-bearing. Three cover slips were used in parallel and 100 neurons per cover slip were counted. Results were derived from 3 to 5 independent experiments.
molecule,measurement,setting,value
B1,NaCl concentration at elution from heparin-sepharose column,"[1]; ^125I-GFLs, step NaCl gradient",0.75 to 1 M
same,binding to heparin-sepharose column,[1]; ^125I-labeled GFLs,bind strongly to heparin
same,ka (×10^−5) (M^−1s^−1),[2]; GFL in solution,3.7 (×10^−5) M^−1s^−1
same,kdis,[2]; GFL in solution,0.017 s⁻¹
same,Kd = kdis/ka,[2]; from dynamics,47.3 ± 9.9 nM
same,Kd,[2]; from equilibrium response,51.3 ± 3.6 nM
same,ka (×10^−5) (M^−1s^−1),[3]; heparin in solution,15 (×10^−5) M^−1s^−1
same,kdis,[3]; heparin in solution,0.034 s⁻¹
same,Kd = kdis/ka,[3]; from dynamics,22.7 ± 2.7 nM
same,Kd,"[3]; from equilibrium response, read-out: Kd (equilibrium)",12.3 ± 3.4 nM
same,ka (×10^−5) (M^−1s^−1),syndecan-3 ectodomain,13 ± 2 (×10^−5) M^−1s^−1
same,activation of Src family kinases (pY^418Src Western blot),Src family kinase,induces HSPG-dependent activation of Src family kinases
same,neurite outgrowth on immobilized protein,"[4]; E17 rat hippocampal neurons, 18 hours",stimulated neurite outgrowth
same,neurite outgrowth with soluble protein,[4]; soluble GDNF added to neurons grown on BSA-matrix,failed to induce neurites
